3 substances from patent US20150064134A1 can be followed below.

Targets include PDGFRβ(h) (human) (UniProt P09619); NEK6(h) (human) (UniProt Q9HC98); Src(T341M)(h) (human) (UniProt P12931); Lck(h) activated (human) (UniProt P06239); MST3(h) (human) (UniProt Q9Y6E0); Pim-1(h) (human) (UniProt P11309); Fyn(h) (human) (UniProt P06241); EphB4(h) (human) (UniProt P54760).
Common to all, as to experiment: cell-based or functional assay
For another assay, the target named is T1, GRK7(h) (human) (UniProt Q8WTQ7).
T1 sequence (looked up): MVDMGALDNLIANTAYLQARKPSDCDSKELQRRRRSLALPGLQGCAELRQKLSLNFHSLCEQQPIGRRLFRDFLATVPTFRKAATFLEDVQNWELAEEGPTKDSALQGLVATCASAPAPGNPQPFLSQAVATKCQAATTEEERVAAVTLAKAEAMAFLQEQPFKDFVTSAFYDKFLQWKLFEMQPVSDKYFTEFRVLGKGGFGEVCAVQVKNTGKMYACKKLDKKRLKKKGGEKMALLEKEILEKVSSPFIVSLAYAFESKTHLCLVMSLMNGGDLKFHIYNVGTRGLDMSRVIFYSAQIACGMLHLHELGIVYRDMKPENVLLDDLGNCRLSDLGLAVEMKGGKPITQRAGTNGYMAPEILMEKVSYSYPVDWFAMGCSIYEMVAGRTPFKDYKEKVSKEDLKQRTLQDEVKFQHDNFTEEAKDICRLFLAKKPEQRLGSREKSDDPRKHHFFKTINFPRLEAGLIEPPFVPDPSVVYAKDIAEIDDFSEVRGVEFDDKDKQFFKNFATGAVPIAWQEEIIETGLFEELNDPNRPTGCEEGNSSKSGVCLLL

For a further assay, the target named is T2, Mer(h) (human) (UniProt Q12866).
T2 sequence (looked up): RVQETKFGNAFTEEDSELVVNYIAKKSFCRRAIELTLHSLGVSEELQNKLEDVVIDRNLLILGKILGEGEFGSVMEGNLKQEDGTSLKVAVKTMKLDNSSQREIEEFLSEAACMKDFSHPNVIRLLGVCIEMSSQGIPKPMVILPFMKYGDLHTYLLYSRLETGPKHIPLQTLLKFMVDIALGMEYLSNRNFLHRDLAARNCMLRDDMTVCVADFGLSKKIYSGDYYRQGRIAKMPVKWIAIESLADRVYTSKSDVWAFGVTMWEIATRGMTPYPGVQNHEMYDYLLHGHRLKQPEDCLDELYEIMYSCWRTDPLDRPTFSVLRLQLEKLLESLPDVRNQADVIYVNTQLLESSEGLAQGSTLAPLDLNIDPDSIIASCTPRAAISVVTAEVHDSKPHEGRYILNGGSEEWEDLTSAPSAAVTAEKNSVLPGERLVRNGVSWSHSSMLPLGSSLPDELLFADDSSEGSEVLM

The target in another assay is T3, Ret(V804L)(h) (human) (UniProt P07949).
T3 sequence (looked up): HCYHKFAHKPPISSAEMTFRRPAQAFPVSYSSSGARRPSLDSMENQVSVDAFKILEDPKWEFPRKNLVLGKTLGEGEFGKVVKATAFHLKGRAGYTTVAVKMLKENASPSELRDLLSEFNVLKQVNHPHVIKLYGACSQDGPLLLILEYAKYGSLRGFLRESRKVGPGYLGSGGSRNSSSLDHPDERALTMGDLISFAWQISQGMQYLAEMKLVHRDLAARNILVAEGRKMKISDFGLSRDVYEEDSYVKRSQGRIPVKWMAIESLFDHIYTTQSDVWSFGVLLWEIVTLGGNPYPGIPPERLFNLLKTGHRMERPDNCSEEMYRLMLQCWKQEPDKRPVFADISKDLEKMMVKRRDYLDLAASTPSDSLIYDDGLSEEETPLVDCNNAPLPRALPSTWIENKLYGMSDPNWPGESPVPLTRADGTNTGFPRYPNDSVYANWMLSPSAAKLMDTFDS

In the next assay the target is T4, ARK5(h) (human) (UniProt O60285).
T4 sequence (looked up): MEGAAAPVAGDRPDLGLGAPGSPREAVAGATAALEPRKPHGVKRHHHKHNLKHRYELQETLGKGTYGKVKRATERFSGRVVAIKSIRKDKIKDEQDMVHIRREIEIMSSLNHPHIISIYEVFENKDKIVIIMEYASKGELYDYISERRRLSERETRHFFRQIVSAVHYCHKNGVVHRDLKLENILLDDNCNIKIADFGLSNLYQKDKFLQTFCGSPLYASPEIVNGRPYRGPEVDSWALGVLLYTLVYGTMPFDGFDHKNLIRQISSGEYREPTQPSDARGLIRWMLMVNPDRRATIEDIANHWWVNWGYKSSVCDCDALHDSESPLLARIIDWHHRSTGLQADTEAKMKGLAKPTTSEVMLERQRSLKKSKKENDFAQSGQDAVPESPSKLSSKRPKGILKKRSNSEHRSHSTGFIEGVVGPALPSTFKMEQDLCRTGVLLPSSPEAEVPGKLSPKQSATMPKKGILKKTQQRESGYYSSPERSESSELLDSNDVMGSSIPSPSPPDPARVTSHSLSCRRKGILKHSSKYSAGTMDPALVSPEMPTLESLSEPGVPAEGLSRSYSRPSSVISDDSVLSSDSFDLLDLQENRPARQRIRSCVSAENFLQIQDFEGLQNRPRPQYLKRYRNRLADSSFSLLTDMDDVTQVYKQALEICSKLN

Another assay deals with T5, PhKγ2(h) (human) (UniProt P15735).
T5 sequence (looked up): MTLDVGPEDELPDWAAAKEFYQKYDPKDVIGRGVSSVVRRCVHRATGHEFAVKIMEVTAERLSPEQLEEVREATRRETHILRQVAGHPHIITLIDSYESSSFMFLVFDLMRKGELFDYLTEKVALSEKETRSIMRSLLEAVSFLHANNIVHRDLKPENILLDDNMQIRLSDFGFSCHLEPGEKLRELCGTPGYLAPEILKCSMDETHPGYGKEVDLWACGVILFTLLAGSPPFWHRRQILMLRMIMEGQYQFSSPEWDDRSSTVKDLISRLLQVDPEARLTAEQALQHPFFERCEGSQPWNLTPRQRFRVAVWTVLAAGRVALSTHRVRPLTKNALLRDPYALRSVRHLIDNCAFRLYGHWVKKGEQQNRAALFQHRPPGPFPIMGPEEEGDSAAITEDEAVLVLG

EphB4(h) (human), sequence (P54760 561-987 limits assumed): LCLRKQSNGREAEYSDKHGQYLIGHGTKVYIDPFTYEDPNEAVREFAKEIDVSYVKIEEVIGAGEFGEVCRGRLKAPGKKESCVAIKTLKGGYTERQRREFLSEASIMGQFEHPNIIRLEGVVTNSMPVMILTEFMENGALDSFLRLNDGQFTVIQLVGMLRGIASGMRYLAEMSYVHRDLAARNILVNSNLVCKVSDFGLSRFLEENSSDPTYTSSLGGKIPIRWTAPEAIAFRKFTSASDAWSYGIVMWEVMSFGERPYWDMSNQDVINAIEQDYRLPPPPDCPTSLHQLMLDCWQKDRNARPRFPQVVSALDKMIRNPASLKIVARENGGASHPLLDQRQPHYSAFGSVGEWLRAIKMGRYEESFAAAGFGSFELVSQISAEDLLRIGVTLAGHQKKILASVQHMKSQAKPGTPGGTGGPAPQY
PDGFRβ(h) (human), sequence (P09619 557-1106 limits assumed): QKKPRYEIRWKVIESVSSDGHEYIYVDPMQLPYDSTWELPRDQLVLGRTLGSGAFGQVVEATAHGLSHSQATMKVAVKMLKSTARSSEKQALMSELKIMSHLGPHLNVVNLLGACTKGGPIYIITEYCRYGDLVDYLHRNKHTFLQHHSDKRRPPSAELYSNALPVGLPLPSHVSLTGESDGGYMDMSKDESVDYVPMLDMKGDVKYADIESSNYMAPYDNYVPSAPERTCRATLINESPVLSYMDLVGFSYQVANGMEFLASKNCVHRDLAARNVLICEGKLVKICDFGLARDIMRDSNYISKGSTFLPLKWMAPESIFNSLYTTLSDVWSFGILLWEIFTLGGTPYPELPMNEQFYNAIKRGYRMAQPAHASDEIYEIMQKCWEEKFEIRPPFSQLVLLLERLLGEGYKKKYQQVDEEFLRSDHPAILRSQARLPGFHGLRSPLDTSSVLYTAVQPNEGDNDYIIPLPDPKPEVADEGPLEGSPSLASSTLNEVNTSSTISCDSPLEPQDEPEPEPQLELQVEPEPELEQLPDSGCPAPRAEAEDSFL

As to MMI-0400 (peptide), the % activity at 100 µM with GRK7(h) (human) came to 100%; with PDGFRβ(h) (human) it was 53%; in the assay with NEK6(h) (human), 85%; with Mer(h) (human) it was 50%; with Src(T341M)(h) (human) it was 76%; with Ret(V804L)(h) (human), 73%. Besides, the % activity at 100 µM in the assay with Lck(h) activated (human) is 216%; with MST3(h) (human) it was 36%; in the assay with Pim-1(h) (human) it was 7%; with ARK5(h) (human) it was 69%; with PhKγ2(h) (human), 38%; with Fyn(h) (human), 54%. For the same substance, in the assay with EphB4(h) (human), the % activity at 100 µM came out at 28%.
MMI-0500 (peptide): the % activity at 100 µM with GRK7(h) (human) stood at 93%; in the assay with PDGFRβ(h) (human), 40%; in the assay with NEK6(h) (human), 49%; with Mer(h) (human), 17%; with Src(T341M)(h) (human) it was 59%; with Ret(V804L)(h) (human) it was 20%. In addition, the % activity at 100 µM in the assay with Lck(h) activated (human) stood at 76%; with MST3(h) (human), 4%; with Pim-1(h) (human), 0%; with ARK5(h) (human), 20%; with PhKγ2(h) (human), 16%; with Fyn(h) (human) it was 83%. In the assay with EphB4(h) (human), the % activity at 100 µM turned out to be 38%.
In the case of MMI-0300 (peptide), the % activity at 100 µM was found to be 122% with GRK7(h) (human); 81% with PDGFRβ(h) (human); 82% in the assay with NEK6(h) (human); 52% in the assay with Mer(h) (human); 70% with Src(T341M)(h) (human); 79% in the assay with Ret(V804L)(h) (human). The % activity at 100 µM came to 243% with Lck(h) activated (human); 45% in the assay with MST3(h) (human); 8% in the assay with Pim-1(h) (human); 78% with ARK5(h) (human); 46% in the assay with PhKγ2(h) (human); 74% with Fyn(h) (human). In addition, the % activity at 100 µM in the assay with EphB4(h) (human) is 44%.
